Results reported in patent USRE50178 (CELLTECH R AND D, dated 2024).

Target: T1, CD3 antigen (human, UniProt P07766 23-207)
T1 construct: whole, on cells; also called OKT3 antigen; antigen in the T-cell receptor-CD3 complex
Assay: competition with Fl-OKT3 on HPB-ALL cells, flow cytometry

B1: OKT3 gL221 / gH341 (JA178), basic grafted product (antibody, human IgG4, V domains shown)
VH: QVQLVESGGGVVQPGRSLRLSCSSSGYTFTRYTMHWVRQAPGKGLEWVAYINPSRGYTNYNQKFKDRFTISRDNSKNTLFLQMDSLRPEDTGVYFCARYYDDHYCLDYWGQGTTLTVSS
VL: DIQMTQSPSSLSASVGDRVTITCSASSSVSYMNWYQQTPGKAPKLLIYDTSKLASGVPSRFSGSGSGTDYTFTISSLQPEDIATYYCQQWSSNPFTFGQGTKLQITR
notes: Human IgG4 and human kappa constant regions; also called minimally grafted OKT3 antibody
**Q.** Does B1 bind?
**A.** no binding
